Results taken from patent US20130196415.

System: fibrin

## trypsin (EC3.4.21.4, manufactured by Wako Pure Chemical Industries, Ltd.)
  digestion circle on fibrin-containing solid medium (fibrinolytic activity assay, protease at FLV 111, overnight at 37° C.): a digestion circle was observed for trypsin
